The text below walks through data of patent publication US20250034222A1, “IL-38 VARIANTS” (Monash University, priority 2021, published 2025).

Series [1] is described as follows: SEC analysis of monomer:dimer proportion of IL-38 variants upon purification. Type of series: physicochemical. The settings on record: for capacity to form a homodimer / monomer: SEC upon purification, FIG. 11. Here is the method:
Recombinant IL-38 variants were expressed in BL21-CodonPlus(DE3)-RIL cells (Stratagene) by 0.5 mM IPTG induction (OD600 0.8) overnight at 18° C. Cells expressing IL-38 variants were lysed by sonication in 50 mM Tris-HCl (pH 8.0), 500 mM NaCl, 3 mM β-mercaptoethanol, and 30 mM imidazole. Cells were clarified by centrifugation, filtered through a 0.8 μm membrane, and bound to Ni-NTA resin (Qiagen) for 1 hour at 4° C. on a rotating platform. The resin was washed with 300 ml of 50 mM Tris-HCl (pH 8.0), 500 mM NaCl, 3 mM β-mercaptoethanol, and 30 mM imidazole. The protein was eluted from the Ni-NTA resin (Qiagen) in a buffer containing 50 mM Tris-HCl (pH 8.0), 500 mM NaCl, 3 mM β-mercaptoethanol, and 400 mM imidazole. Protein was further purified on a Superdex 75 Increase 10/300 GL column (Cytiva Life Sciences) in 10 mM HEPES (pH 7.2), 150 mM NaCl, and 2 mM DTT.
The number and elution volume of the elution peaks are indicative of whether the size of the recombinant protein corresponds to monomeric or dimeric IL-38 conformations or both conformations. The proportion of monomer: dimer for each mutant (FIGS. 9 and 11) were calculated by comparing the area under the monomer and dimer peaks from three individual purifications.
For orientation: In gel filtration, larger molecules generally elute earlier.

The nature of series [2]: Analytical SEC of IL-38 variants upon extended incubation. The settings on record: 0.165 mg/ml, 37° C., 16 hours, Sorensen's phosphate buffer pH 7.0, 5% glycerol. Type of series: physicochemical. As for the experimental part:
To examine the monomer-dimer equilibrium upon extended incubation, indicated IL-38 variants (residues 3-152, C-terminal His6 tag) were incubated at 0.165 mg/ml and 37° C. for 16 hours in Sorensen's phosphate buffer (0.13 M, pH 7.0) with 5% (v/v) glycerol. The monomer: dimer proportion was examined by analytical SEC on a Superdex 75 Increase 10/300 GL column (Cytiva Life Sciences).

The test system of the next series is IRF3/7. In words: Poly (I:C)-induced IRF3/7 Quanti-Luc in A549-Dual reporter cells. The settings on record: 1 ng/ml Poly (I:C) LMW, 100 nM/l to 100 fM/l variant, 20 h, dexamethasone 5 nM benchmark. Type of series: cell-based, Human. As for the experimental part: FIG. 17: IL-38-Fc reduces Poly (I:C)-induced IRF3/7 Quanti-Luc in Human NF-kB-SEAP & IRFLuc Reporter A549-Dual cells from Invivogen (lung epithelial cells). A549-Dual cells were pretreated for 1 h with lipofectamine and (1 ng/ml) Poly (I:C) low molecular weight (LMW) and then stimulated dose dependently (A) 100 nM/l, (B) 1 nM/l, (C) 10 pM/l, (D) 100 fM/l with different IL-38 variants or dexamethasone (5 nM) as benchmark for 20 h. […]
6 μl of A549 Dual cell supernatants or plain stimulation media (background control) and 15 μl of QUANTI-Luc™ solution (InvivoGen) were added to a 384-well plate (Opti-plate-384, PerkinElmer, #6007290) and immediately measured as per manufacturer's instructions. After background subtraction, the %-change in luciferase activity of IL-38 variants (1 nm/l)+Poly (I:C) treated conditions over poly (I:C)+vehicle-treated cells were calculated ([…] of cells treated with poly (I:C)+vehicle=100%).

Setting [3] is: SEC, area under monomer and dimer peaks.

“Also recorded” adds a separate entry of the source.

B1: IL-38 (A51D): Variant of IL-38 that forms monomer; SNP rs6743376, mutation at residue 51 (A51D), residues 3-152 (protein)
chain: SLPMARYYIIKYADQKALYTRDGQLLVGDPVADNCCAEKICILPNRGLDRTKVPIFLGIQGGSRCLACVETEEGPSLQLEDVNIEELYKGGEEATRFTFFQSSSGSAFRLEAAAWPGWFLCGPAEPQQPVQLTKESEPSARTKFYFEQSW
For B1, in series [1], the “capacity to form a homodimer / monomer” value is “reduced capacity to form a homodimer”. In addition, the “monomer-dimer equilibrium upon extended incubation” value in series [2] is “more stable monomer; also recorded: stable monomer”.

B2: V55T: Variant of IL-38 V55T with increased capacity to form monomer, residues 3-152 (protein)
chain: SLPMARYYIIKYADQKALYTRDGQLLVGDPVADNCCAEKICILPNRGLARTKTPIFLGIQGGSRCLACVETEEGPSLQLEDVNIEELYKGGEEATRFTFFQSSSGSAFRLEAAAWPGWFLCGPAEPQQPVQLTKESEPSARTKFYFEQSW
Consider B2, for which the “capacity to form a homodimer / monomer” value in series [1] was “reduced capacity to form a homodimer”.

B3: T53N: Variant of IL-38 T53N with increased capacity to form monomer, residues 3-152 (protein)
chain: SLPMARYYIIKYADQKALYTRDGQLLVGDPVADNCCAEKICILPNRGLARNKVPIFLGIQGGSRCLACVETEEGPSLQLEDVNIEELYKGGEEATRFTFFQSSSGSAFRLEAAAWPGWFLCGPAEPQQPVQLTKESEPSARTKFYFEQSW
Turning to B3, the “capacity to form a homodimer / monomer” value in series [1] is “reduced capacity to form a homodimer”.

B4: V55Q: Variant of IL-38 V55Q with increased capacity to form monomer, residues 3-152 (protein)
chain: SLPMARYYIIKYADQKALYTRDGQLLVGDPVADNCCAEKICILPNRGLARTKQPIFLGIQGGSRCLACVETEEGPSLQLEDVNIEELYKGGEEATRFTFFQSSSGSAFRLEAAAWPGWFLCGPAEPQQPVQLTKESEPSARTKFYFEQSW
Turning to B4, the “capacity to form a homodimer / monomer” value in series [1] is given as “reduced capacity to form a homodimer”.

B5: WT IL-38: Wild-type IL-38, residues 3-152, alanine at position 51 (called D51A) (protein)
chain: SLPMARYYIIKYADQKALYTRDGQLLVGDPVADNCCAEKICILPNRGLARTKVPIFLGIQGGSRCLACVETEEGPSLQLEDVNIEELYKGGEEATRFTFFQSSSGSAFRLEAAAWPGWFLCGPAEPQQPVQLTKESEPSARTKFYFEQSW
In the case of B5, in series [1] (setting [3]), the “dimer formed upon purification” value is around 20% and the monomer upon purification is recorded as around 80%. Also, the “monomer-dimer equilibrium upon extended incubation” value in series [2] was “slow equilibrium between the two states”. In the series on IRF3/7, the “reduction in poly (I:C)-induced IRF3/7 (Quanti-Luc)” value was “slightly less potent than A51D (non-fused) IL-38”.

B6: ΔT53: Locked homodimer IL-38 variant, T53 deleted (protein, UniProt Q8WWZ1 1-152, looked up, variant T53*)
Interleukin-1 family member 10: MCSLPMARYYIIKYADQKALYTRDGQLLVGDPVADNCCAEKICILPNRGLARKVPIFLGIQGGSRCLACVETEEGPSLQLEDVNIEELYKGGEEATRFTFFQSSSGSAFRLEAAAWPGWFLCGPAEPQQPVQLTKESEPSARTKFYFEQSW
As for B6, the “capacity to form a homodimer / monomer” value in series [1] is “stable locked dimer”. Besides, the “monomer-dimer equilibrium upon extended incubation” value in series [2] is “stable as a dimer”. In the series with IRF3/7, the “reduction in poly (I:C)-induced IRF3/7 (Quanti-Luc)” value is “only marginal reduction”.
